The supplement of paper PMC5998384

Key:
[1] = test system: HeLa Kyoto; test: melting temperature (median over replicates), in situ; higher = more thermally stable
[2] = test system: HeLa Kyoto; test: solubility change mitosis vs G1/S (difference of NP-40 vs SDS log2 ratios) (log2 ratio difference); higher = more soluble in mitosis
[3] = test system: HeLa Kyoto; test: thermal stability score vs G1/S (z-score of summed log2 fold changes over temperatures); higher = more thermally stable than in G1/S
[4] = test system: HeLa Kyoto; test: solubility in G1/S (NP-40 vs SDS abundance) (log2 ratio); higher = more soluble; settings: cell cycle stage: G1/S
[5] = cell cycle stage: early G1 (4.5 h after nocodazole release)
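Wherever melting temperature (median over replicates), in situ is given: HeLa Kyoto cells synchronized by double thymidine or nocodazole block, proteins quantified by TMT10plex mass spectrometry, three independent biological replicates.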
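Wherever solubility change mitosis vs G1/S (difference of NP-40 vs SDS log2 ratios) is given: synchronized HeLa Kyoto cells (double thymidine block for G1/S, nocodazole release for mitosis), protein amounts in NP-40 versus SDS lysates quantified by mass spectrometry, three biological replicates.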
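Wherever solubility in G1/S (NP-40 vs SDS abundance) is given: HeLa Kyoto cells arrested at G1/S by double thymidine block, proteins quantified by TMT10plex mass spectrometry in mild NP-40 versus SDS extracts, three biological replicates.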
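Wherever thermal stability score vs G1/S (z-score of summed log2 fold changes over temperatures) is given: synchronized HeLa Kyoto cells, proteins quantified by TMT10plex mass spectrometry, three biological replicates, mitosis taken 0.5 h after nocodazole release, G1/S directly after double thymidine block.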

## MDLRVGQRPPVEPPPEPTLLALQRPQRLHHHLFLAGLQQQRSVEPMRLSMDTPMPELQVGPQEQELRQLLHKDKSKRSAVASSVVKQKLAEVILKKQQAALERTVHPNSPGIPYRTLEPLETEGATRSMLSSFLPPVPSLPSDPPEHFPLRKTVSEPNLKLRYKPKKSLERRKNPLLRKESAPPSLRRRPAETLGDSSPSSSSTPASGCSSPNDSEHGPNPILGSEALLGQRLRLQETSVAPFALPTVSLLPAITLGLPAPARADSDRRTHPTLGPRGPILGSPHTPLFLPHGLEPEAGGTLPSRLQPILLLDPSGSHAPLLTVPGLGPLPFHFAQSLMTTERLSGSGLHWPLSRTRSEPLPPSATAPPPPGPMQPRLEQLKTHVQVIKRSAKPSEKPRLRQIPSAEDLETDGGGPGQVVDDGLEHRELGHGQPEARGPAPLQQHPQVLLWEQQRLAGRLPRGSTGDTVLLPLAQGGHRPLSRAQSSPAAPASLSAPEPASQARVLSSSETPARTLPFTTGLIYDSVMLKHQCSCGDNSRHPEHAGRIQSIWSRLQERGLRSQCECLRGRKASLEELQSVHSERHVLLYGTNPLSRLKLDNGKLAGLLAQRMFVMLPCGGVGVDTDTIWNELHSSNAARWAAGSVTDLAFKVASRELKNGFAVVRPPGHHADHSTAMGFCFFNSVAIACRQLQQQSKASKILIVDWDVHHGNGTQQTFYQDPSVLYISLHRHDDGNFFPGSGAVDEVGAGSGEGFNVNVAWAGGLDPPMGDPEYLAAFRIVVMPIAREFSPDLVLVSAGFDAAEGHPAPLGGYHVSAKCFGYMTQQLMNLAGGAVVLALEGGHDLTAICDASEACVAALLGNRVDPLSEEGWKQKPNLNAIRSLEAVIRVHSKYWGCMQRLASCPDSWVPRVPGADKEEVEAVTALASLSVGILAEDRPSEQLVEEEEPMNL [HDAC7]
[1]; cell cycle stage: G1/S
  melting temperature: 53 °C
[1]; cell cycle stage: mitosis
  melting temperature: 52.3 °C
[2]
  solubility change mitosis (log2): 0.0342
[3]; [5]
  thermal stability score: 0.178
[3]; cell cycle stage: mitosis
  thermal stability score: -0.224
[4]
  solubility in G1/S (log2): 0.129

## MRALRAGLTLASGAGLGAVVEGWRRRREDARAAPGLLGRLPVLPVAAAAELPPVPGGPRGPGELAKYGLPGLAQLKSRESYVLCYDPRTRGALWVVEQLRPERLRGDGDRRECDFREDDSVHAYHRATNADYRGSGFDRGHLAAAANHRWSQKAMDDTFYLSNVAPQVPHLNQNAWNNLEKYSRSLTRSYQNVYVCTGPLFLPRTEADGKSYVKYQVIGKNHVAVPTHFFKVLILEAAGGQIELRTYVMPNAPVDEAIPLERFLVPIESIERASGLLFVPNILARAGSLKAITAGSK [ENDOG]
[1]; cell cycle stage: G1/S
  melting temperature: 51.8 °C
[2]
  solubility change mitosis (log2): 0.0884
[3]; [5]
  thermal stability score: 1.54
[3]; cell cycle stage: mitosis
  thermal stability score: 0.994
[4]
  solubility in G1/S (log2): 0.34
